Biological target: the molecule itself
Test: cryo-EM structure; T4aP^Mx filaments purified from the hyperpiliated ΔpilT strain; helical reconstruction, twist 100.7°, rise 10 Å per subunit, 3.0 Å

B1: major pilin PilA of Myxococcus xanthus (mature PilA, MXAN_5783) (natural protein, UniProt Q59589 13-220, looked up)
chain: FTLIELMIVVAIIGILAAIAIPNFIKFQARSKQSEAKTNLKALYTAQKSFFSEKDRYSDFANEIGFAPERGNRYGYRVSAAAGDCEVRNAADLPVPAAGVPCISNDSFRFGANSAIDDPTPVVARFVPQGAAGWNTTLGVQPTIADCPNCNFFAGARGNADNEATFDDWVIAGFEGSGQVGPCSEAGNVASGTPYNTRNDVACDGAAQ
notes: PilA, major type IVa pilin of Myxococcus xanthus, MXAN_5783; mature pilin of 208 aa after removal of the type III signal peptide by PilD; numbers count on: the mature protein; Assembled as the T4aP filament of thousands of copies; Disulfide bridges C95/C102 and C183/C203; the authors speculate that surface-exposed C150 is post-translationally modified; also called PilA^WT; Mx PilA; source: …
Does B1 bind?
Result: binds

— PMC11046646, “Tight-packing of large pilin subunits provides distinct structural and mechanical properties for the Myxococcus xanthus type IVa pilus” (Proceedings of the National Academy of Sciences of the …, 2024)
